Data reported in patent publication US7588931B2, “High arachidonic acid producing strains of Yarrowia lipolytica” (E. I. du Pont de Nemours and Company, priority 2004, dated 2009).

Legend:
Assay type in all cases: cell-based, Yarrowia lipolytica
[1] = system: β-glucuronidase (GUS) reporter; assay: Relative promoter activity rank from comparative GUS reporter studies (histochemical, fluorometric and/or Real Time PCR); settings: relative to other promoters
Description: The activity of GPM is about the same as TEF, while the activity of GPD, FBA, FBAIN, FBAINm, GPDIN, GPAT, YAT1 and EXP1 are all greater than TEF (activity is quantified in a relative manner in the column titled “Activity Rank”, wherein a ‘1’ corresponds to the promoter with lowest activity, while a ‘7’ corresponds to the promoter with highest activity). […] GUS activity in each expressed construct was measured by histochemical and/or fluorometric assays (Jefferson, R. A. Plant Mol. Biol. Reporter 5:387-405 (1987)) and/or by use of Real Time PCR.

[2] = system: GUS mRNA; assay: Comparative analysis of promoters by quantitative (Real Time) PCR of GUS mRNA; settings: for transcription activity relative to the TEF promoter: after 24 hrs in HGM, ATCC #76982 strains
Description: The transcriptional activities of the TEF, GPD, GPDIN, FBA and FBAIN promoters were determined in Y. lipolytica containing the pY5-30, PYZGDG, pDMW222, pDMW212 and pDMW214 constructs by quantitative PCR analyses. This required isolation of RNA and real time RT-PCR.
More specifically, Y. lipolytica ATCC #76982 strains containing pY5-30, PYZGDG, pDMW222, pDMW212 and pDMW214 were grown from single colonies in 6 mL of MM in 25 mL Erlenmeyer flasks for 16 hrs at 30° C. Each of the 6 mL starter cultures was then added to individual 500 mL flasks containing 140 mL HGM and incubated at 30° C. for 4 days. In each interval of 24 hrs, 1 mL of each culture was removed from each flask to measure the optical density, 27 mL was removed and used for a fluorometric GUS assay (as described above), and two aliquots of 1.5 mL were removed for RNA isolation. The culture for RNA isolation was centrifuged to produce a cell pellet.
The RNA was isolated from Yarrowia strains according to the modified Qiagen RNeasy mini protocol (Qiagen, San Diego, Calif.). Briefly, at each time point for each sample, 340 μL of Qiagen's buffer RLT was used to resuspend each of the two cell pellets. The buffer RLT/cell suspension mixture from each of the two tubes was combined in a bead beating tube (Bio101, San Diego, Calif.). About 500 μL of […] glass beads was added to the tube and the cells were disrupted by bead beating 2 min at setting 5 (BioPulverizer, Bio101 Company, San Diego, Calif.). The disrupted cells were then pelleted by centrifugation at 14,000 rpm for 1 min and 350 μl of the supernatent was transferred to a new microcentrifuge tube. Ethanol (350 μL of 70%) was added to each homogenized lysate. After gentle mixing, the entire sample was added to a RNeasy mini column in a 2 mL collection tube. The sample was centrifuged for 15 sec at 10,000 rpm. Buffer RW1 (350 μL) was added to the RNeasy mini column and the column was centrifuged for 15 sec at 10,000 rpm to wash the cells. The eluate was discarded. Qiagen's DNasel stock solution (10 μL) was added to 70 μl of Buffer RDD and gently mixed. This entire DNase solution was added to the RNeasy mini column and incubated at room temperature for 15 min. After the incubation step, 350 μL of Buffer RW1 was added to the mini column and the column was centrifuged for 15 sec at 10,000 rpm. The column was washed twice with 700 μL […]. RNase-free water (50 μL) was added to the column. The column was centrifuged for 1 min at 10,000 rpm to elute the RNA.
A two-step RT-PCR protocol was used, wherein total Yarrowia RNA was first converted to cDNA and then cDNA was analyzed using Real Time PCR. The conversion to cDNA was performed using Applied Biosystems' High Capacity cDNA Archive Kit (PN#4322171; Foster City, Calif.) and Molecular Biology Grade water from MediaTech, Inc. (PN# 46-000-Con; Holly Hill, Fla.). Total RNA from Yarrowia (100 ng) was converted to cDNA by combining it with 10 μl of RT buffer, 4 μl of 25×dNTPs, 10 μl 10× Random Hexamer primers, 5 μl Multiscribe Reverse Transcriptase and 0.005 μl RNase Inhibitor, and brought to a total reaction volume of 100 μl with water. The reactions were incubated in a thermocycler for 10 min at 25° C. followed by 2 hrs at 37° C. The cDNA was stored at −20° C. prior to Real Time analysis.
Real Time analysis was performed using the SYBR Green PCR Master Mix from Applied Biosystems (PN# 4309155). The Reverse Transcription reaction (2 μl) was added to 10 μl of 2×SYBR PCR Mix, 0.2 μl of 100 μM Forward and Reverse primers for either URA (i.e., primers YL-URA-16F and YL-URA-78R [SEQ ID NOs:183 and 184]) or GUS (i.e., primers GUS-767F and GUS-891R [SEQ ID NO:185 and 186]) and 7.2 μl water. The reactions were thermocycled for 10 min at 95° C. followed by 40 cycles of 95° C. for 5 sec and 60° C. for 1 min in an ABI 7900 Sequence Detection System instrument. Real time fluorescence data was collected during the 60° C. extension during each cycle. […]

[3] = system: β-glucuronidase (GUS) reporter; assay: Comparative analysis of promoters by histochemical analysis of GUS expression; settings: ATCC #76982 strains, MM, FIG. 5B
Description: Comparative studies investigating the promoter activities of the TEF, GPD, GPDIN, GPM, GPAT, FBA, FBAIN and YAT1 promoters were performed, by synthesizing constructs comprising each promoter and the E. coli gene encoding β-glucuronidase (GUS) as a reporter gene (Jefferson, R. A. Nature. 14(342):837-838 (1989)). Then, GUS activity was measured by histochemical and fluorometric assays (Jefferson, R. A. Plant Mol. Biol. Reporter 5:387-405 (1987)) and/or by using Real Time PCR for mRNA quantitation.
Yarrowia lipolytica ATCC #76982 strains containing plasmids pY5-30, pYZGDG, pYZGMG, pDMW212 and pDMW214 were grown from single colonies in 3 mL MM at 30° C. to an OD600˜1.0. Then, 100 μl of cells were collected by centrifugation, resuspended in 100 μl of histochemical staining buffer, and incubated at 30° C. Staining buffer was prepared by dissolving 5 mg of 5-bromo-4-chloro-3-indolyl glucuronide (X-Gluc) in 50 μl dimethyl formamide, followed by the addition of 5 mL 50 mM NaPO4, pH 7.0.
In a separate experiment, Y. lipolytica Y2034 strains containing plasmids pY5-30, pYGPAT-GUS, pYAT-GUS and pDMW214 were grown from single colonies in 5 mL SD media at 30° C. for 24 hrs to an OD600˜8.0. Then, 1 mL of cells were collected by centrifugation. The remaining cultures were centrifuged and washed 2× with HGM, resuspended in 5 mL each of HGM and allowed to grow at 30° C. further. After 24 and 120 hrs, ˜0.25 mL of each culture were centrifuged to collect the cells. Cell samples were resuspended individually in 100 μl of histochemical staining buffer (supra). Zymolase 20T (5 μl of 1 mg/mL; ICN Biomedicals, Costa Mesa, Calif.) was added to each, and the mixture incubated at 30° C. […]

Molecule	Activity “Rank” [1]	transcription activity relative to the TEF promoter [2]	transcriptional activity relative to the TEF promoter ([2]; final day of the 4 day experiment in HGM) [times]	promoter activity by histochemical staining [3]
GPDIN: glyceraldehyde-3-phosphate dehydrogenase + intron promoter, SEQ ID NO:159 (nucleic acid, listed as Yarrowia lipolytica, misc_feature: Promoter GPDIN) DNA: AAACACGCAGTAGGATGTCCTGCACGGGTCTTTTTGTGGGGTGTGGAGAAAGGGGTGCTTGGAGATGGAAGCCGGTAGAACCGGGCTGCTTGTGCTTGGAGATGGAAGCCGGTAGAACCGGGCTGCTTGGGGGGATTTGGGGCCGCTGGGCTCCAAAGAGGGGTAGGCATTTCGTTGGGGTTACGTAATTGCGGCATTTGGGTCCTGCGCGCATGTCCCATTGGTCAGAATTAGTCCGGATAGGAGACTTATCAGCCAATCACAGCGCCGGATCCACCTGTAGGTTGGGTTGGGTGGGAGCACCCCTCCACAGAGTAGAGTCAAACAGCAGCAGCAACATGATAGTTGGGGGTGTGCGTGTTAAAGGAAAAAAAAGAAGCTTGGGTTATATTCCCGCTCTATTTAGAGGTTGCGGGATAGACGCCGACGGAGGGCAATGGCGCTATGGAACCTTGCGGATATCCATACGCCGCGGCGGACTGCGTCCGAACCAGCTCCAGCAGCGTTTTTTCCGGGCCATTGAGCCGACTGCGACCCCGCCAACGTGTCTTGGCCCACGCACTCATGTCATGTTGGTGTTGGGAGGCCACTTTTTAAGTAGCACAAGGCACCTAGCTCGCAGCAAGGTGTCCGAACCAAAGAAGCGGCTGCAGTGGTGCAAACGGGGCGGAAACGGCGGGAAAAAGCCACGGGGGCACGAATTGAGGCACGCCCTCGAATTTGAGACGAGTCACGGCCCCATTCGCCCGCGCAATGGCTCGCCAACGCCCGGTCTTTTGCACCACATCAGGTTACCCCAAGCCAAACCTTTGTGTTAAAAAGCTTAACATATTATACCGAACGTAGGTTTGGGCGGGCTTGCTCCGTCTGTCCAAGGCAACATTTATATAAGGGTCTGCATCGCCGGCTCAATTGAATCTTTTTTCTTCTTCTCTTCTCTATATTCATTCTTGAATTAAACACACATCAACATGGCCATCAAAGTCGGTATTAACGGATTCGGGCGAATCGGACGAATTGTGAGTACCATAGAAGGTGATGGAAACATGACCCAACAGAAACAGATGACAAGTGTCATCGACCCACCAGAGCCCAATTGAGCTCATACTAACAGTCGACAACCTGTCGAACCAATTGATGACTCCCCGACAATGTACTAACACAGGTCCTGCCC	3	~4.4 times	~2.6	–
GPD: Y. lipolytica glyceraldehyde-3-phosphate dehydrogenase promoter, SEQ ID NO:158 (nucleic acid, listed as Yarrowia lipolytica, misc_feature: Promoter GPD) DNA: GACGCAGTAGGATGTCCTGCACGGGTCTTTTTGTGGGGTGTGGAGAAAGGGGTGCTTGGAGATGGAAGCCGGTAGAACCGGGCTGCTTGTGCTTGGAGATGGAAGCCGGTAGAACCGGGCTGCTTGGGGGGATTTGGGGCCGCTGGGCTCCAAAGAGGGGTAGGCATTTCGTTGGGGTTACGTAATTGCGGCATTTGGGTCCTGCGCGCATGTCCCATTGGTCAGAATTAGTCCGGATAGGAGACTTATCAGCCAATCACAGCGCCGGATCCACCTGTAGGTTGGGTTGGGTGGGAGCACCCCTCCACAGAGTAGAGTCAAACAGCAGCAGCAACATGATAGTTGGGGGTGTGCGTGTTAAAGGAAAAAAAAGAAGCTTGGGTTATATTCCCGCTCTATTTAGAGGTTGCGGGATAGACGCCGACGGAGGGCAATGGCGCCATGGAACCTTGCGGATATCGATACGCCGCGGCGGACTGCGTCCGAACCAGCTCCAGCAGCGTTTTTTCCGGGCCATTGAGCCGACTGCGACCCCGCCAACGTGTCTTGGCCCACGCACTCATGTCATGTTGGTGTTGGGAGGCCACTTTTTAAGTAGCACAAGGCACCTAGCTCGCAGCAAGGTGTCCGAACCAAAGAAGCGGCTGCAGTGGTGCAAACGGGGCGGAAACGGCGGGAAAAAGCCACGGGGGCACGAATTGAGGCACGCCCTCGAATTTGAGACGAGTCACGGCCCCATTCGCCCGCGCAATGGCTCGCCAACGCCCGGTCTTTTGCACCACATCAGGTTACCCCAAGCCAAACCTTTGTGTTAAAAAGCTTAACATATTATACCGAACGTAGGTTTGGGCGGGCTTGCTCCGTCTGTCCAAGGCAACATTTATATAAGGGTCTGCATCGCCGGCTCAATTGAATCTTTTTTCTTCTTCTCTTCTCTATATTCATTCTTGAATTAAACACACATCAACATG	2	about 2 times	–	active
